Where a chain is given by its changes, count along the chain named. Numbers in names are those of the source. Like-named read-outs stand apart in the source and are kept apart here.
Tests used:
[1] = target: T1, human IL-17A, untagged, E. coli derived (in house or Peprotech) (human, UniProt Q16552 24-155); assay: cell-based or functional assay
[2] = target: T1, human IL-17A, untagged, E. coli derived …; assay: cell-based or functional assay; remark: listed apart in the source
[3] = target: T2, Human IL-17A-Flag-His10 (HEK) (human, UniProt Q16552 24-155); assay: SPR BIAcore 2000; IgG1 amine-coupled on CM3, IL-17A 0.78-50 nM as analyte; 1:1 Langmuir fit
T2 construct: may be the same protein as the HIS FLAG IL-17A; not shown: Flag-His10 tag

cynomolgus IL-17A [4] = target: T3, cynomolgus IL-17A (cynomolgus, UniProt Q16552 24-155 (human entry), limits assumed); assay: as above
T3 construct: in house, E. coli derived (HEK EBNA derived in some HT1080 assays); also called Cyno IL-17A; Cyno IL-17
T3 chain: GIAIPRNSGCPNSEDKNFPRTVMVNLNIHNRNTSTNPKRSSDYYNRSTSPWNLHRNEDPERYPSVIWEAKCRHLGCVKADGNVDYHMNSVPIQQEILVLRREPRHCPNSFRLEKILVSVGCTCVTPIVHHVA

[5] = target: T1, human IL-17A, untagged, E. coli derived …; assay: as above
[6] = target: T4, human IL-17A derived from the HEK-EBNA expression system (human, UniProt Q16552 24-155); assay: cell-based or functional assay
cynomolgus IL-17A [7] = target: T3, cynomolgus IL-17A; assay: cell-based or functional assay
[8] = target: T4, human IL-17A derived from the HEK-EBNA …; assay: estimated from pA2 (Schild) analysis in the HT1080 IL-6 release assay
[9] = target: T1, human IL-17A, untagged, E. coli derived …; assay: cell-based or functional assay; remark: listed apart in the source
cynomolgus IL-17A [10] = target: T3, cynomolgus IL-17A; assay: SPR BIAcore 2000; IgG1 amine-coupled on CM3, IL-17A 0.78-50 nM as analyte; Bivalent Analyte fit (kd1/ka1)
[11] = target: T1, human IL-17A, untagged, E. coli derived …; assay: as above
[12] = target: T1, human IL-17A, untagged, E. coli derived …; assay: cell-based or functional assay; remark: listed apart in the source
[13] = target: human IL-17A receptor on HT1080 cells (human); assay: cell-based or functional assay
[14] = target: T5, HIS FLAG tagged human IL-17A (in house HEK EBNA derived) (human, UniProt Q16552 24-155); assay: HTRF receptor-ligand assay: inhibition of HIS FLAG IL-17A binding IL-17RA Fc
T5 construct: glycosylated, from HEK EBNA cells; also called HIS FLAG IL-17A; HIS FLAG human IL-17A; not shown: HIS FLAG tag

[15] = target: T5, HIS FLAG tagged human IL-17A (in house …); assay: as above; remark: listed apart in the source
[16] = target: T5, HIS FLAG tagged human IL-17A (in house …); assay: HTRF receptor-ligand assay: inhibition of HIS FLAG IL-17A binding IL-17RA Fc; scFv, non-germlined sequence
Antibody 2 IgG1 = target: T6, Antibody 2 IgG1; assay: HTRF epitope competition vs HIS FLAG IL-17A binding the IgG
T6 construct: human IgG1, lambda; constant regions not in the listing; also called Antibody 02

[17] = target: T7, Biosource mAb (reference anti-IL-17 mAb); assay: as above
T7 construct: murine (detected with anti-murine Fc)

TINA51 IgG = assay: DELFIA epitope competition vs biotinylated human IL-17A on immobilised IgG
TINA1 IgG = assay: as above
TINA10 IgG = assay: as above

T6 sequence (VH, as listed by the source): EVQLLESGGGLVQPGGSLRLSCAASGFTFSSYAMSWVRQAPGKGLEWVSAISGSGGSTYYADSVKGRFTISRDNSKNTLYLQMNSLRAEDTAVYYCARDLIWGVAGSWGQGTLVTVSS

B1: Antibody 7 IgG1 (antibody, V domains shown)
VH: not shown
VL: NFMLTQPHSVSESPGKTVTISCTRSSGSLANYYVQWYQQRPGSSPTIVIFANNQRPSGVPDRFSGSIDSSSNSASLTISGLKTEDEADYYCQTYDPYSVVFGGGTKLTVL
notes: human IgG1, lambda; constant regions not in the listing; also called Antibody 07
- RA synovial fibroblast IL-8, Mean IC50 versus IL-17A (1 nM) and TNFα (0.1 ng/ml) [1]: 4.97 nM
- RA synovial fibroblast IL-8, Mean IC50 versus IL-17A (2 nM) [1]: 2.85 nM
- chondrocyte IL-8 release, geometric mean IC50 at 2 nM IL-17A [2]: 1.3 nM
- Kd [3]: 0.171 nM
- Kd (cynomolgus IL-17A [4]): 0.512 nM
- Kd [5]: 0.195 nM
- HT1080 IL-6 release, IgG IC50 [6]: 0.7 nM
- HT1080 IL-6 release, IgG geometric mean IC50 (n = 15) [6]: 0.8 nM
- HT1080 IL-6 release, IgG IC50 (cynomolgus IL-17A [7]): 5 nM
- HT1080 IL-6 release, IgG geometric mean IC50 (n = 12) (cynomolgus IL-17A [7]): 4.8 nM
- Kd [8]: 0.553 nM
- cartilage explant synergised IL-6 response, Mean IC50 [9]: 0.61 nM
- Kd (cynomolgus IL-17A [10]): 1.34 nM
- Kd [11]: 2.1 nM
- chondrocyte IL-8 release, geometric mean IC50 at 2 nM IL-17A [12]: 1.6 nM

B2: Mutant IL-17A (L74Q, G75R, I77V, D80E, N82K, V83L, Y85H) with C-terminal His tag (HEK/EBNA) (ligand)
chain: GITIPRNPGCPNSEDKNFPRTVMVNLNIHNRNTNTNPKRSSDYYNRSTSPWNLHRNEDPERYPSVIWEAKCRHQRCVNAEGKLDHHMNSVPIQQEILVLRREPPHCPNSFRLEKILVSVGCTCVTPIVHHVAHHHHH
- IL-6 release from HT1080 cells, EC50 [13]: 2.36 nM

B3: Antibody 1 scFv (scFv, V domains shown)
VH: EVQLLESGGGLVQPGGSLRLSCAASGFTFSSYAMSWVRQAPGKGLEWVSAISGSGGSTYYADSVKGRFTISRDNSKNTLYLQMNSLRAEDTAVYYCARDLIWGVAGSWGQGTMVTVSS
VL: B1 VL with S44A, G80R, T93S, P96D, Y97S
notes: scFv (one chain); also called TINA12
- HT1080 IL-6 release, scFv: % inhibition printed in the IC50 column (no IC50 reached) [6]: 70%
- IC50 [14]: 12 nM
- IC50 [15]: 12 nM

B4: Antibody 2 scFv (non-germlined) (scFv, V domains shown)
VH: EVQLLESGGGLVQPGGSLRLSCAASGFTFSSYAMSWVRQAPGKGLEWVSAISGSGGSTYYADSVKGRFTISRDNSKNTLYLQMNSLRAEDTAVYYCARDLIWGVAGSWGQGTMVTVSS
VL: B1 VL with S44A, G80R, T93S, Y97H
notes: scFv (one chain)
- HT1080 IL-6 release, scFv IC50 [6]: 16.2 nM
- HT1080 IL-6 release, scFv IC50 (cynomolgus IL-17A [7]): 99 nM
- IC50 [16]: 0.7 nM

B5: Antibody 6 scFv (non-germlined) (scFv, V domains shown)
VH: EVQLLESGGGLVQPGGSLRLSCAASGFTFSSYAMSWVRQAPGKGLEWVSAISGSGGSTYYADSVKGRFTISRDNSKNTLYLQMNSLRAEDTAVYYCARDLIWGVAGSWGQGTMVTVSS
VL: B1 VL with S44A, G80R, T93S, D95S, Y97S
notes: scFv (one chain)
- HT1080 IL-6 release, scFv IC50 [6]: 31.2 nM
- HT1080 IL-6 release, scFv IC50 (cynomolgus IL-17A [7]): 136 nM
- IC50 [14]: 1.7 nM

B6: Antibody 8 scFv (scFv, V domains shown)
VH: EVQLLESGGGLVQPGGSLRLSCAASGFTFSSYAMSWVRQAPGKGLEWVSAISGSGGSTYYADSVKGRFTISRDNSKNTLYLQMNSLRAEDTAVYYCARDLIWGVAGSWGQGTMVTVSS
VL: B1 VL with S44A, G80R, T93S, D95N, P96H, Y97K, S98D, V99I
notes: scFv (one chain)
- HT1080 IL-6 release, scFv IC50 [6]: 34.3 nM
- HT1080 IL-6 release, scFv IC50 (cynomolgus IL-17A [7]): 96.4 nM
- IC50 [14]: 0.7 nM

B7: Antibody 11 scFv (scFv, V domains shown)
VH: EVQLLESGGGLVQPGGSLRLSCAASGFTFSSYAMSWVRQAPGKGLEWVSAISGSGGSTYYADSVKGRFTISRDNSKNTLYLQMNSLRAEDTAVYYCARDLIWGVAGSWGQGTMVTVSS
VL: B1 VL with S44A, G80R, T93S, D95S, Y97H
notes: scFv (one chain)
- HT1080 IL-6 release, scFv IC50 [6]: 8.2 nM
- HT1080 IL-6 release, scFv: % inhibition printed in the IC50 column (no IC50 reached) (cynomolgus IL-17A [7]): 20%
- IC50 [14]: 0.6 nM

B8: Antibody 13 scFv (non-germlined) (scFv, V domains shown)
VH: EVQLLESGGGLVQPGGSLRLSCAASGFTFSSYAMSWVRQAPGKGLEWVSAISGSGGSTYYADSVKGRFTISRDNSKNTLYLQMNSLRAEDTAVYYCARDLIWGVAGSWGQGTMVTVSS
VL: B1 VL with S44A, G80R, T93S, Y97R, S98V
notes: scFv (one chain)
- HT1080 IL-6 release, scFv IC50 [6]: 35.9 nM
- HT1080 IL-6 release, scFv IC50 (cynomolgus IL-17A [7]): 147 nM
- IC50 [14]: 1.6 nM

B9: Antibody 14 scFv (non-germlined) (scFv, V domains shown)
VH: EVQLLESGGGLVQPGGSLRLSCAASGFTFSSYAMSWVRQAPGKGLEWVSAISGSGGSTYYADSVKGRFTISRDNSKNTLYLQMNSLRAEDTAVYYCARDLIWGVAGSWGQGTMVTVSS
VL: B1 VL with S44A, G80R, T93S, Y97T, S98N, V99Q
notes: scFv (one chain)
- HT1080 IL-6 release, scFv IC50 [6]: 36.7 nM
- HT1080 IL-6 release, scFv IC50 (cynomolgus IL-17A [7]): 99.5 nM
- IC50 [14]: 2.5 nM

B10: Antibody 15 scFv (non-germlined) (scFv, V domains shown)
VH: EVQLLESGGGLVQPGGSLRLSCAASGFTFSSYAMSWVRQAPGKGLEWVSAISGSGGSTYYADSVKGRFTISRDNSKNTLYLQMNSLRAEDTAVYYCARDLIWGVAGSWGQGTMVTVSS
VL: B1 VL with S44A, G80R, T93S, D95S, Y97T
notes: scFv (one chain)
- HT1080 IL-6 release, scFv IC50 [6]: 21.7 nM
- HT1080 IL-6 release, scFv IC50 (cynomolgus IL-17A [7]): 159 nM
- IC50 [14]: 1.6 nM

B11: Antibody 16 scFv (scFv, V domains shown)
VH: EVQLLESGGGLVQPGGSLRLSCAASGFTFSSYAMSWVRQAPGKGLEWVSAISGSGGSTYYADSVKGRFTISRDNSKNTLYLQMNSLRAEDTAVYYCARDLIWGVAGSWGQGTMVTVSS
VL: B1 VL with S44A, G80R
notes: scFv (one chain)
- HT1080 IL-6 release, scFv IC50 [6]: 13 nM
- HT1080 IL-6 release, scFv IC50 (cynomolgus IL-17A [7]): 249 nM

B12: Antibody 3 IgG1 (antibody, V domains shown)
VH: not shown
VL: B1 VL with S44A, G80R, T93S, D95S, Y97H
- HT1080 IL-6 release, IgG IC50 [6]: 0.8 nM
- Fold difference in cross-reactivity (IgG) (cynomolgus IL-17A [7]): 16 fold
- HT1080 IL-6 release, IgG IC50 (cynomolgus IL-17A [7]): 13 nM

B13: Antibody 4 IgG1 (antibody, V domains shown)
VH: not shown
VL: B1 VL with S44A, G80R, T93S, D95S, Y97T
- HT1080 IL-6 release, IgG IC50 [6]: 0.9 nM
- Fold difference in cross-reactivity (IgG) (cynomolgus IL-17A [7]): 8 fold
- HT1080 IL-6 release, IgG IC50 (cynomolgus IL-17A [7]): 7.3 nM

B14: Antibody 5 IgG1 (antibody, V domains shown)
VH: not shown
VL: B1 VL with S44A, G80R, T93S, D95N, P96H, Y97K, S98D, V99I
- HT1080 IL-6 release, IgG IC50 [6]: 1.4 nM
- Fold difference in cross-reactivity (IgG) (cynomolgus IL-17A [7]): 28 fold
- HT1080 IL-6 release, IgG IC50 (cynomolgus IL-17A [7]): 39.7 nM

B15: Antibody 9 IgG1 (antibody, V domains shown)
VH: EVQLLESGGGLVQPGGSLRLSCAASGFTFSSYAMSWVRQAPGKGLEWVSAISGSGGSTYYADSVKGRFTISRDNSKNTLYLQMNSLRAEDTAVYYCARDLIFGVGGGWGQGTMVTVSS
VL: B1 VL with S44A, G80R, T93S, D95S, Y97H
- HT1080 IL-6 release, IgG IC50 [6]: 2.3 nM
- Fold difference in cross-reactivity (IgG) (cynomolgus IL-17A [7]): 4 fold
- HT1080 IL-6 release, IgG IC50 (cynomolgus IL-17A [7]): 9.2 nM

B16: Antibody 10 IgG1 (antibody, V domains shown)
VH: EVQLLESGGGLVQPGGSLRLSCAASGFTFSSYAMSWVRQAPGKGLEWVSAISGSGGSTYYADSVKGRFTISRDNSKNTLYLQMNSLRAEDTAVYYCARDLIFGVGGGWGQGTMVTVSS
VL: B1 VL with S44A, G80R, T93S, Y97H
- HT1080 IL-6 release, IgG IC50 [6]: 2.2 nM
- Fold difference in cross-reactivity (IgG) (cynomolgus IL-17A [7]): 2 fold
- HT1080 IL-6 release, IgG IC50 (cynomolgus IL-17A [7]): 4.9 nM

B17: Antibody 12 IgG1 (antibody, V domains shown)
VH: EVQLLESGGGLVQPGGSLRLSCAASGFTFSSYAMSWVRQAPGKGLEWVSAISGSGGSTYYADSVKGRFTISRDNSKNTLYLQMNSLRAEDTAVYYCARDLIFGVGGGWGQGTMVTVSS
VL: B1 VL with S44A, G80R
- HT1080 IL-6 release, IgG IC50 [6]: 2.1 nM
- Fold difference in cross-reactivity (IgG) (cynomolgus IL-17A [7]): 2 fold
- HT1080 IL-6 release, IgG IC50 (cynomolgus IL-17A [7]): 4.2 nM

B18: dog IL-17A (in house E. Coli derived) (ligand)
chain: GIAFPQNPGCRNTEDKNFPQHVKVNLNILNRNTNSRRPSDYYNRSTSPWNLHRNEDPERYPSVIWEAKCRHLGCVNNEGNINYHMNSVPIQQEILVLRRESQHCPHSFRLEKMLVAVGCTCVTPIVRHVA
- IC50 (Antibody 2 IgG1): 34 nM
- IC50 [17]: 50 nM

B19: murine IL-17A (R & D Systems) (ligand, UniProt Q62386 22-158, looked up)
chain: TVKAAAIIPQSSACPNTEAKDFLQNVKVNLKVFNSLGAKVSSRRPSDYLNRSTSPWTLHRNEDPDRYPSVIWEAQCRHQRCVNAEGKLDHHMNSVLIQQEILVLKREPESCPFTFRVEKMLVGVGCTCVASIVRQAA
- Fold difference from Human IL-17A (TINA51 IgG): 0.7 fold
- IC50 (TINA51 IgG): 35 nM
- Fold difference from Human IL-17A (TINA1 IgG): 12 fold
- IC50 (TINA1 IgG): 98 nM
- % (printed in the IC50 column, presumably inhibition) (TINA10 IgG): 50%

From patent US20080044423A1 (AstraZeneca / MedImmune, published 2008)
